Results reported in patent US20040014132A1 (AstraZeneca / MedImmune, published 2004).

Target: Human eotaxin (human, UniProt P51671 24-97)
Test: cell-based or functional assay

IC50, inhibition of eotaxin-induced Ca^2+ flux in CCR3 cells (area under the curve, FLIPR) | IC50, inhibition of eotaxin-mediated chemotaxis of CCR3 transfected L1.2 cells | geometric mean IC50, inhibition of eotaxin-evoked shape change of human eosinophils (forward scatter) | Binder
5 nM | 0.65 nM |  | CAT-212 (scFv, part only; not given: scFv linker and myc/His tag, V domains shown, not shown: another chain or arm of the molecule; small tags and cut ends) VH: QVQLVQSGGGVVQPGRSLRLSCAASGFTFSSYGMHWVRQAPGKGLEWVAVISYDGSIKHYADSVKGRFTISRDNSKNTLYLQMNSLRTDDTAVYYCAGDTDYGDIDPWGQGTMVTVSS VL: DIQMTQSPSSVSASVGDRVTITCRASQDISSWLAWYQQKPGKAPKLLIYAASSLQSGVPSRFSGSGSGTDFTLTISSLQPEDFATYYCQQASSFPSITFGQGTRLEIK
 | 0.7 nM | 0.714 nM | CAT-213 (antibody, human IgG4, V domains shown) VH: QVQLVQSGGGVVQPGRSLRLSCAASGFTFSSYGMHWVRQAPGKGLEWVAVISYDGSIKHYADSVKGRFTISRDNSKNTLYLQMNSLRTDDTAVYYCAGDTDYGDIDPWGQGTMVTVSS VL: DIQMTQSPSSVSASVGDRVTITCRASQDISSWLAWYQQKPGKAPKLLIYAASSLQSGVPSRFSGSGSGTDFTLTISSLQPEDFATYYCQQASSFPSITFGQGTRLEIKR
